The values that follow come from US20240409645A1 (DUALYX, published 2024).

Numbering of substitutions follows the chain as printed.

B1: FJ1427_P035MP03G03 (VHH)
VHH: QVQLVESGGGLVQPGGSLGLSCAASGFTFDNYAMSWVRQAPGKGLEWVSSITGAGRGTHYADSVKGRFTISRDNAKNTLYLQMNSLKPEDTAVYYCAKYSSSTYYPPTPARGTDYRGPGTQVTVSS
notes: soluble VHH in periplasmic extract; also called clone nr
B2: FJ1427_P035MP03G02 (VHH)
VHH: EVQLVESGGGLVQPGGSLRLSCAISGGTLDSYGIGWVRQAPGKQREGVSCMSRSDDRTFYADSVKGRFTISKDNAKSTVYLQMTNLKPDDTAVYYCAAVDAYGCSLVQPTTYDFWGLGTQVTVSS
notes: as for B1
B3: FJ1427 P035MP03B04 (VHH)
VHH: QVQLVESGGGLVQTGGSLRLSCAASGSQFINDVMGWYRQVPGKQRELVADMDDTGSTKYADSVKGRFTILRDSVKNTAYLQMSNLKPEDTGVYYCKAGLWIKGRHSDYWGQGTQVTVSS
notes: as for B1
B4: FJ1427_P035MP03F06 (VHH)
VHH: B3 VHH with V5Q
notes: as for B1
B5: FJ1427_P035MP03F04 (VHH)
VHH: B3 VHH with Q1E
notes: as for B1
B6: FJ1427_P035MP03H01 (VHH)
VHH: QVQLVESGGGSVQTGGSLRLSCVVSGSHFISDVMGWYRQVPGKQRELVADMADGGSAKYADSVKGRFTILRDSVKNTVTLQMSSLNPEDTGVYYCKAGLWITGRHSDYWGQGTQVTVTS
notes: soluble VHH in periplasmic extract; also called clone nr; 200
B7: FJ1427 P035MP03D02 (VHH)
VHH: QVQLQESGGGLVQTGGSLRLSCAVSGSRFISDVMGWYRQVPGKQRELVADMADGGSAKYADSVKGRFSILRDSVKNTVYLQMSSLKPEDTGIYYCKAGLWLAGRHSDYWGQGTQVTVSS
notes: as for B1
B8: FJ1427_P035MP03E04 (VHH)
VHH: B7 VHH with Q5V, R28H, G42E, G55N, L101I
notes: as for B1
B9: FJ1427_P035MP03F03 (VHH)
VHH: B6 VHH with G10T, S11L, A60G, L70V, T79Y, T102K
notes: as for B1
B10: FJ1427_P035MP03B03 (VHH)
VHH: B7 VHH with V2L, Q5V, L101I
notes: soluble VHH in periplasmic extract; also called clone nr; 210
B11: FJ1427 P035MP03A03 (VHH)
VHH: B6 VHH with Q1E, A57V, A60G, S106F
notes: as for B1
B12: FJ1427_P035MP03A04 (VHH)
VHH: B6 VHH with Q1E, A57V, A60G, S106F
notes: as for B1
B13: FJ1427_P035MP03E02 (VHH)
VHH: QVQLVESGGGLVQVGGSLSVSCAASGRSFDSITMAYFRQAPGNEREFIAGINFSGSRTAYGDSVKGRFTISRDNAKNTVFLQMNSLNPEDTAVYYCAASPRGFYGPGHALYDYWGQGTQVTVSS
notes: as for B1
B14: FJ1427_P035MP03B02 (VHH)
VHH: EVQLVESGGGLVQVGDSLRLSCAASGRTVGSANMGWFRQAPGKEREFVAVITWSTGSTVYADSVKGRFTISRDNAKNTVYLDMSSLKPDDTAVYYCAADVYPYSGNLNIMDYWGKGTLVTVSS
notes: as for B1
B15: FJ1427_P035MP03F01 (VHH)
VHH: QVQLVESGGGLVQVGGSLRVSCAASGRTSGDRNMGWFRQAPGKEREFVGIITWSSGSTVYADSVKGRFTISRDNAKNTVYLDMSSLKPEDTAVYYCAADYYPYSGSWNIMDYWGKGTLVTVSS
notes: as for B1
B16: FJ1427_P035MP03D03 (VHH)
VHH: B14 VHH with E1Q, M83L, D89E, L118Q
notes: as for B1
B17: FJ1427_P035MP06B01 (VHH)
VHH: QVQLVESGGGLVQAGGSLRLSCAASGDVFVRYTMAWFRQAPGKEREFVASVTDSGRTTDYVHSVKGRFTVSRDNAKNTVYLQMNNLKPEDTAVYYCAANTDYFQIRSLDANTWGQGTQVTVSS
notes: as for B1
B18: FJ1427 P035MP03B12 (VHH)
VHH: B17 VHH with Q1E, S50A, T58A, H62D, A110R
notes: as for B1
B19: FJ1427 P035MP06C02 (VHH)
VHH: B17 VHH with A23V, A24V, S50V, D59E, H62D, L108V, A110N, T112A
notes: as for B1
B20: FJ1427 P035MP03B11 (VHH)
VHH: B17 VHH with Q1E, S21A, A24L, H62A, K65Q, A75N, N85S, A110R
notes: as for B1
B21: FJ1427_P035MP03A10 (VHH)
VHH: B17 VHH with S21A, A24L, H62A, K65Q, A75N, N85S, A110R
notes: as for B1
B22: FJ1427 P035MP03B08 (VHH)
VHH: B17 VHH with S21A, A24L, H62A, K65Q, A75N, N85S, A110R
notes: soluble VHH in periplasmic extract; also called clone nr; 250
B23: FJ1427_P035MP03B05 (VHH)
VHH: B17 VHH with Q1E, S21A, A24L, H62A, K65Q, A75N, N85S, A110R
notes: as for B1
B24: FJ1427 P035MP03D09 (VHH)
VHH: B17 VHH with A24V, R106K
notes: soluble VHH in periplasmic extract; also called clone nr; 260
B25: FJ1427 P035MP03C06 (VHH)
VHH: B17 VHH with S21A, A24L, H62A, K65Q, A75N, N85S, A110R
notes: as for B1
B26: FJ1427 P035MP03B10 (VHH)
VHH: B17 VHH with A23V, A24V, S50V, D59E, H62D, L108V, A110N, T112A
notes: as for B1
B27: FJ1427 P035MP06D01 (VHH)
VHH: B17 VHH with G10R, D59E, H62D, V79A, D109N, A110L
notes: as for B1
B28: FJ1427 P035MP03C11 (VHH)
VHH: B17 VHH with S21A, A24L, H62A, K65Q, A75N, N85S, A110R
notes: as for B1
B29: FJ1427 P035MP03C08 (VHH)
VHH: B17 VHH with Q1E, S21A, A24L, H62A, K65Q, A75N, N85S, A110R
notes: as for B1
B30: FJ1427 P035MP03E07 (VHH)
VHH: B17 VHH with A24V, S50T, D59E, H62D, Q104R
notes: as for B1
B31: FJ1427 P035MP03D07 (VHH)
VHH: B17 VHH with Q1E, V61G, H62D
notes: as for B1
B32: FJ1427_P035MP03E03 (VHH)
VHH: QVQLVESGGGLVQPGGSLRLSCAVSGGTLHDYGIGWIRQAPGKQREGVSCMSRSDDKTYYADYVKGRFTISKDNAKNTVYLQMISLKPEDTAVYYCAAVDAYGCSLVQPTTYDYWGQGTQVTVSS
notes: as for B1

For one test, the target named is T1, human IL-2Rβ (human, UniProt P14784 27-240, limits assumed).
T1 construct: Recombinant protein, coated (ELISA) or immobilised on CM5 (SPR); also called hu IL-2R; interleukin 2 receptor β-chain
T1 sequence: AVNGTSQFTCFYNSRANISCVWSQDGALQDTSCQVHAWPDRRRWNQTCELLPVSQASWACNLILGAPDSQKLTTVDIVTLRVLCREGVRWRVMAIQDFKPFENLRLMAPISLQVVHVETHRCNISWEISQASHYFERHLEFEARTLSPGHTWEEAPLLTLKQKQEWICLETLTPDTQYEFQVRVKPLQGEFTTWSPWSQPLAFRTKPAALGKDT
Briefly: SPR (Biacore), P.E. off-rate ranking.
Usually koff stands for the rate constant with which the complex falls apart. High values mean a short-lived complex, low ones a long-lived complex. Turning to B1, the off-rate constant (koff) was found to be 0.00114 s⁻¹.

For the molecule B2, the off-rate constant (koff) is 0.000754 s⁻¹.

For the molecule B3, the koff worked out at 0.00043 s⁻¹.

B4 had a koff of 0.000286 s⁻¹.

The molecule B5 registered a koff of 0.000402 s⁻¹.

B6 returned a koff of 0.000365 s⁻¹. The koff values of the last two molecules are within 1.5-fold of each other.

As for B7, the koff is 0.000796 s⁻¹.

The molecule B8 registered an off-rate constant (koff) of 0.000253 s⁻¹.

Turning to B9, the dissociation rate constant (koff) worked out at 0.000361 s⁻¹.

In turn, B10 came in with a koff of 0.000499 s⁻¹.

On to B11, for which the koff was 0.000248 s⁻¹.

As for B12, the koff was found to be 0.000373 s⁻¹.

Regarding B13, the koff came out at 0.00124 s⁻¹.

In the case of B14, the koff amounted to 0.00241 s⁻¹. Compared with the last molecule, the koff is about 1.9-fold higher.

B15 returned a koff of 0.00447 s⁻¹.

B16 registered a dissociation rate constant (koff) of 0.000538 s⁻¹. This koff lies about 8.3-fold lower than the previous one.

As for B17, the off-rate (koff) was 0.0021 s⁻¹.

On to B18, for which the koff turned out to be 0.00125 s⁻¹.

As to B19, the off-rate constant (koff) came out at 0.000455 s⁻¹.

On to B20, for which the off-rate (koff) was determined as 0.000622 s⁻¹.

B21 returned a koff of 0.000636 s⁻¹.

Regarding B22, the koff was found to be 0.00064 s⁻¹.

B23 yielded a koff of 0.000898 s⁻¹.

For the molecule B24, the dissociation rate constant (koff) was 0.00161 s⁻¹.

Turning to B25, the koff was found to be 0.000658 s⁻¹.

Take B26: the koff amounted to 0.000707 s⁻¹.

Regarding B27, the koff was 0.00031 s⁻¹.

For B28, the dissociation rate constant (koff) was 0.000514 s⁻¹. This koff lies about 1.7-fold higher than the previous one.

In the case of B29, the koff worked out at 0.000757 s⁻¹.

The molecule B30 displayed a koff of 0.00168 s⁻¹.

B31 came in with a koff of 0.00263 s⁻¹.

B32: the koff was found to be 0.00136 s⁻¹.

Another test deals with T1, human IL-2Rβ. Kind of test: P.E. binding ELISA on coated protein. As for the experimental part: In a binding ELISA, human or mouse IL-2Rα, IL-2Rβ and IL-2Rγ proteins were coated directly on maxisorp microtiter plates overnight at 4° C. Free binding sites were blocked using 4% Marvel in PBS for 1 hour. Next, 1:5 dilution of P.E. in 1% Marvel/PBS were added to wells and incubated for 1 hour. […] Binding specificity was determined based on O.D. at 450 nm values compared to negative controls.
Background: ELISA stands for enzyme-linked immunosorbent assay.
As for B1, the “P.E. binding ELISA OD” value is 0.137 OD450 nm.

For the molecule B2, the “P.E. binding ELISA OD” value is 0.684 OD450 nm.

Regarding B3, the “P.E. binding ELISA OD” value was 0.186 OD450 nm.

As for B4, the “P.E. binding ELISA OD” value was found to be 0.434 OD450 nm.

B5: the “P.E. binding ELISA OD” value was 0.153 OD450 nm.

As to B6, the “P.E. binding ELISA OD” value was determined as 0.327 OD450 nm.

For B7, the “P.E. binding ELISA OD” value was found to be 0.116 OD450 nm.

As for B8, the “P.E. binding ELISA OD” value is 0.22 OD450 nm.

In the case of B9, the “P.E. binding ELISA OD” value amounted to 0.107 OD450 nm.

For the molecule B10, the “P.E. binding ELISA OD” value is 0.31 OD450 nm.

For the molecule B11, the “P.E. binding ELISA OD” value came out at 0.296 OD450 nm.

For the molecule B12, the “P.E. binding ELISA OD” value worked out at 0.305 OD450 nm.

Consider B13, for which the “P.E. binding ELISA OD” value turned out to be 0.488 OD450 nm.

For B14, the “P.E. binding ELISA OD” value was 0.529 OD450 nm.

Take B15: the “P.E. binding ELISA OD” value turned out to be 0.221 OD450 nm.

As to B16, the “P.E. binding ELISA OD” value worked out at 0.265 OD450 nm.

Turning to B17, the “P.E. binding ELISA OD” value was 0.521 OD450 nm.

For the molecule B18, the “P.E. binding ELISA OD” value came to 0.202 OD450 nm.

Regarding B19, the “P.E. binding ELISA OD” value turned out to be 0.799 OD450 nm.

Take B20: the “P.E. binding ELISA OD” value was determined as 0.987 OD450 nm.

Turning to B21, the “P.E. binding ELISA OD” value was found to be 0.983 OD450 nm.

B22: the “P.E. binding ELISA OD” value worked out at 1.12 OD450 nm.

As to B23, the “P.E. binding ELISA OD” value amounted to 0.401 OD450 nm.

Consider B24, for which the “P.E. binding ELISA OD” value worked out at 0.313 OD450 nm.

For the molecule B25, the “P.E. binding ELISA OD” value turned out to be 1.21 OD450 nm.

Turning to B26, the “P.E. binding ELISA OD” value is 0.286 OD450 nm.

Take B27: the “P.E. binding ELISA OD” value is 1.1 OD450 nm.

With B28, the “P.E. binding ELISA OD” value stood at 1.31 OD450 nm.

Regarding B29, the “P.E. binding ELISA OD” value is 0.972 OD450 nm.

Take B30: the “P.E. binding ELISA OD” value is 0.211 OD450 nm.

For B31, the “P.E. binding ELISA OD” value was 0.209 OD450 nm.

Turning to B32, the “P.E. binding ELISA OD” value worked out at 0.281 OD450 nm.
